# Assay results reported in the DeepSol protein solubility set.
# Assay: soluble on expression in E. coli; label from the status in PepcDB or PDB records
row,Sequence,soluble on expression in E. coli
1,MGSDKIHHHHHHMARYSKKMKLLINTPSLKFLGGGVANHYIGLRTFWTENVKYNVVGRRGGKSGSGKYWLPWDIFKFIFRLLTFRPNIILLNPSLGDKALKRDFIYLNICRFFRKKTSVFIHGFNFEYAKNADWKWISTNLNKALCIFVLSQEFKNELIRRGVKSDIHLTSTKVPDYFISGFDLSMRQGKAKNIMYSGRIEKAKGVYETVDTFSILKSQYKDLTLTFVGDGSELPKLKQYVENKKIKDVRFTGRLCGEDFKKEYINADMYLFLSYTEGMPTVVLEAMIFGLPIFTRKVGGLIDFFENGKMGYISSSLDPVVFAEAMKPYIESSAKMKSVSLYNSEYARTHFIASVVARKFENTLNYEYFKNQEHREH,not soluble
2,MGSDKIHHHHHHMASHLTDGVIHATTRAASLHWCIAQATKTDGALNGDGYLLKRDEDTLLFALADGVGSGQLAHDASSACLRILAASDDMDLPSLFETCHTQLTSTRGAALGLVKFFLGQGFLEWAAVGDIEGCIYPTEPTSSRTISMMQRGGTLGHYFTGITPQQHAWPPTSMLALCTDGVSRKFRERHPNDQAPREFADSCFNDFGRDNDDRTLATFSWTQEGT,not soluble
3,MGSDKIHHHHHHMASKNFVLDTNVLIENPRCIAALRNGEENRIHVPWTVLAELDGLQRDPRIGHVVGQAINALVGDEAVTFLPPLADDVAPSPGTIGDDRILGEIASSALESPILITNDRILQLKARVRGIPVEGYRDSVPFQSESQRYTGFVMDGEDPVPNCFRWENGQPVFHGPDGPRAVTWQHEVWKVAPRSVHQNLAFELMLHPGIDIVSIQSEAGYGKTFLALAAALHLVFERKDTPYRKIYLVKPVVEIGARMGFLPGDIEEKMHPYIRYVQDLLLKLHDLRPANRVFQSVEAGNMKLNPKRFEIQPIAYVRGMNLENAVVIIDEMQNLSRNEARALLTRMGEGVKCFCLGDTRQVDNQYLNESNNGLNWVVKKLKGFRNYAHIVLKGERSRGPITDIVLRSRL,not soluble
4,MGSDKIHHHHHHMASVMSNNNNNNNNNNASYMFTNPLSNTGGGLINEIKDAINEMEQLKVLELKQICKSLDLSITGKKAVLQDRIKQFLRKSCDIGHIDPWRPKAIKILIAKVRINSSLPKYSTLWETLKTGAFKHPVASGQLPVTALQSTALPPYSQQQALAYSFTSPFYKPIVQIPDANKKLKQSAGRGCTKMKFKVSKSNHDLLKSNKSYKLYLFSGFSIPFIYETVGHEAIDFPYPCELVFNGTKLEDNVKGLKKQNGTGNPANLTPYLKVPTEMNHLDLHYLNIDKEYSISCFIVEVFSPEALLGKILKRPKIIKQATTAYIKRTLNEQDDDDIITTSTVLSLQCPISCTRMKYPAKTDQCKHIQCFDALWFLHSQSQVPTWQCPICQHPIKFDQLKISEFVDNIIQNCNEDVEQVEISVDGSWKPIHNSSAVITDTVNQNHSVKNENQGTVKQEQDYDSRNAFDTNLRNGSNHNEPEIISLDSSDDEAFIPASKSFPTHVNPRNDQLRADIFPSESEGSSDYNPNHTSTPKGSPTMDQDNYQDAFQMRSFLNQGATTNINDTPTNNSSINSFVTATNGDSRIFYNRGPSTPLLPAVLQNLTNQTEAQRNPYGPNYNTTAQDRNLLGIEGDLPPIPPVDPNSEAETELPTRTTSAAHLPPYIHVSTSGHGDDGKIRKRRHSNVSIYIPKNPYATLMKRRPQANHAIMNKTLAQTNDFNTSAQDNSEVVDLTSD,not soluble
5,MGSDKIHHHHHHMATMMMNDMAARGLRVGLLTWDPEDATAHYPMDPAITWMKLAMGEASQRAGWGLRLRRQRAIRRLARGFRPDVVIGFQAGAFIALRTALVGLGIPMIAAERNAPDLYDFLRQGVRARRMTELALATASRITVQLPSYRPRYPAFLRRRIVDIPNPVPALAEPPYPNEAADPPRLILNMGRLSYQKNQAFLLRAFARVAPTHPEWTLAFVGDGDAGATLKALCHELDLDDRVLFPGATRDVGAWYARSAFLAFPSLWEGFPNALVEAFAHGLPAVGLRTTSGVNELIVEGETGLLSAPDEGAFAEALARMIRDDEARREMGRKAARSILAYDPKAIFDRWEALFRAVAKRRSAP,not soluble
6,MGSDKIHHHHHHMATPPFHYQHMFPLGPDKTEYYLLTKDYVSVSEFEGKPILKIEKEGLTAMANAAFRDVSFLLRRSHNEQVAKILSDPEASDNDKYVALTFLRNAEVSAKGKLPLCQDTGTAIIHGEKGQQVWTGYCDEEALSLGVYKTYTEENLRYSQNAPLTMYDEVNTKCNLPAQIDLEATEGMEYKFLCVTKGGGSANKTYLYQETKAVLNPATLVPFLVEKMKTLGTAACPPYHIAFVIGGTSAEKNLLTVKLASTHYYDELPTTGNEYGRAFRDVELEKQVLEEAYKIGLGAQFGGKYMAHDVRIIRLPRHGASCPIGLGVSCSADRNIKCKINKDGIWIEKMDDKPGELIPAELREAGEGDVVKIDLNQPMADILKELTKYPVATRLSLNGTIIVGRDIAHAKLKERLDRGEDLPQYIKDHPIYYAGPAKTPEGMACGSMGPTTAGRMDPYVDLFQSHGGSMIMLAKGNRSQQVTDACKKYGGFYLGSIGGPAAILAQNNIKSIECVEYPELGMEAIWKIEVEDFPAFILVDDKGNDFFKQLKPRCLGNCK,not soluble
7,MGSDKIHHHHHHMATVDLSQLPQPQIIEVLDFEVILREVKAVMIAAFPANQQASVTAALELESEPLNQIAQVIAYRELMLRQRINEGAASCMLSHAVSSDLDNLAANLNTERLVITAETETADAVMENDAAFRLRAQSAFEGLSVAGPTAAYEYFAKSASGKVKDAKAISPSPAVVVVSVISSEANGTASSELLSTVETALSAEDKRPVADRLTVQSAEIVDFAINAVLYLYPGPESEPIHTAAQKALQSWIGEQGMIGRDVARSSIMAALHVQGVQRVSVVEPPHDIVISDTQAAYCTGFTVTTGGIDG,not soluble
8,MGSDKIHHHHHHMAVELRYDEEAVFLRRVNRFVVEVKSSRGVVRCHLMDTGRIDHLASPGRRGVLIAWLNRLGGKTVCRAQAFKTAGGVVAVVDSRVPNRLFAEAAPMVVGGDASIEAEREVFGSRLDFLISTGRGLWAVEVKGVNLSLDGVGLFPNAPSARAVKHLEVLARLAREGVKPLMAFVALRPDIRVFAPNYRVDRRFASLACTLLRRGLVGMVGIRVSIDLEPGVVRIRPVATAPVQCPPLQPGR,not soluble
9,MGSDKIHHHHHHMAVLITRPGERGERLVEMLNKAGIMALHLPLISIIAGQELNRLPNKLQQLNCGDYVVAVSKNAVEYAQKTLSAVGFCWRSDLYYFTVGQRTAEYFASQIENSVYYPVEQESSEGLLNLPQMQDLQARNILILRANGGREFFTEQAILRGAKVETLECYQRMPIEYNKLEKISLCQRIGVDTIVVTSQEMLNYLVKLVPTNETGWLFSCRLVTVSQRIAALAKSVGWTNIVVADKADNLSLFLALQQ,not soluble
10,MGSDKIHHHHHHMAVNRFRLENGKEELALYQIQLLKDQSHNENEEDKVSSSSFRQRILGNLLQPPNERPELPSGLYVLGLTGISGSGKSSVAQRLKNLGAYIIDSDHLGHRAYAPGGPAYQPVVEAFGTDILHKDGTINRKVLGSRVFGNKKQMKILTDIVWPVIAKLAREEMDVAVAKGKTLCVIDAAMLLEAGWQSMVHEVWTVVIPETEAVRRIVERDGLSEAAAQSRLQSQMSGQQLVEQSNVVLSTLWESHVTQSQVEKAWNLLQKRLPKAYQTRN,soluble
11,MGSDKIHHHHHHMAVVQHHLPLSARLPARGIFEDDWRDRPSKRHPYPVILIHGTGVTKGDWMELGHALRSLGYAVWAPDFGMRSTAAVAESAAQVGAYIDAVLTVTKAKKAIVVGHSQGGILARYWMHNLDGANKVSHLISLAVPHHGTSHGGMMSPLGRTPRGTAVIDSLITGFFGASGFEMLHDSELIAQLNEHGDTLPYVYYSCIATRSDTIIQPVESCFLHGKLVRNIYAQAVSKHAIILHEDMPHDPRVRRLVIAEIERVERLTIPS,not soluble
12,MGSDKIHHHHHHMAYADKKLYTDAGFTLERGEHLGIVGQNGAGKSTLIKILTGKVLPIAGRVEWKKKIQIGYLDQYADIPSGMSLIDFLHTAYSDLYDKEKKMTDLYSKYAELVDDKLLERATRFQNELDAADFYSIDNNVEQVITGLGLDSIGRDHIISEMSGGQRAKIILAKLLLEGNDVIILDEPTNYLDVSHIKWLEGYLQNYDGAALIISHDFDFLNNVANVILDVSFNTLTKYRGNFDQAMRQKTEKTEQQLRAYNKQQEVIKKTKTFIQKNKARASTTGRAKSREKMLAHMDIIEPPQTNPKATFKFPYIESQSTDALKAERLVVGYDPKKPVLNPITFSMSSGDKIVFTGFNGAGKSTLIKTLLGILPAISGKSKFSPSAKTNYFDQDLIWDDDKKTPLQIMQAAYPLEEQKQLRQRLGAAGINADNATKQMCLLSGGEQTKVKLALMELTPSNFLILDEPTNHLDEATKNSLKKAIQKFDGSLILVTHERSFYEGWIDKVIDIASMSNMQPGEVEE,not soluble
13,MGSDKIHHHHHHMCLVVAARWPSRLVSSVKEDKMKPSTSRLTLLAGILGLPMALCLPLAAQAQSNQWQVNGFIGQGYISADGSEFIVGESGDTFDVTEAALHLSWMPDEHFRVAGAARYRQWGNLDESGLSADYLFAEYKFILDQGYVGARGGLFKSEAGFYTSTRDVSFTRPGILLPQSVYSDYLRDALLHITGGELFGGHPLLDGSLEWHLTLGDAQTSDDLTRNVVGSEEFGRFDADGYWGADLEYQDDSLRLGLTYFDAKSRYQSHLGGPFADGSLRSKHWIVSAQYRINFLEFTGEYLHWDRYVGGVFVPPELGIYEVRGYGYYLDVRGYLPGDVEVFVRYDHQVQDEKDPDGDKLAERGLPGYFGYAHDWTIGTRWLPAKDWMVAAEYHKVRGAAWVTPILLPNPAVQDKDWSLFAIEISYKFQW,not soluble
14,MGSDKIHHHHHHMCMYVFVKERVESRSFIPEEKIFELLEKTKNPDPARVREIIQKSLDKNRLEPEETATLLNVEDPELLEEIFEAARTLKERIYGNRIVLFAPLYIGNDCINDCVYCGFRVSNKVVERRTLTEEQLKEEVKALVSQGHKRLIVVYGEHPNYSPEFIARTIDIVYNTKYGNGEIRRVNVNAAPQTIEGYKIIKSVGIGTFQIFQETYHRETYLKLHPRGPKSNYNWRLYGLDRAMMAGIDDVGIGALFGLYDWKFEVMGLLYHTIHLEERFGVGPHTISFPRIKPAINTPYSQKPEHVVSDEDFKKLVAIIRLSVPYTGMILTAREPAKLRDEVIKLGVSQIDAGSRIGIGAYSHKEDDEDRKRQFTLEDPRPLDQVMRSLLKEGFVPSFCTACYRAGRTGEHFMEFAIPGFVKNFCTPNALFTLQEYLCDYATEETRKVGEEVIERELQKMNPKIRERVREGLEKIKRGERDVRF,not soluble
15,MGSDKIHHHHHHMDAFYASVEQRDNPELCGKPLAVGHAEERGVVAAASYEARRYGVHSAMSSQKAKRLCPELIFVPGRMNVYKAVSRQIHDIFHTYTDIIEPLSLDEAFLDVTENKAGFSLAIDIAKDIKKRIRKELGLIASAGVSYNKFLAKIASDYRKPDGLCTIHPDQALDFIAHLPIESFWGVGPVTAQKMHALGIHNGTQLQACTLEMLTRQFGKAGNLYYDFARGIDLRPVEPIRIRKSVGCEHTLEKDISLHSSAIIELYHVVTELLERLKRTNFSGNTLTLKIKFHDFNQITRSITQDSELTSMDKILPLAKKLLKEIDYESHPIRLIGLSVSNPKEEIKKQWEQLSLEFKEWDD,not soluble
16,MGSDKIHHHHHHMDDFSEILARKRQGSLKVYLGYAAGVGKTYAMLQEAHRLAREGLDVVIGYVEPHDRADTLALVEGLEQVAPRKVAIAGSDFTEMDVPGIIARRPQVVLVDELAHTNAAGSENGKRYQDVLKVLEAGINVITTLNVQHLESVAERVESVAGVRVQERLPDAILRRADQVVNVDLTKEDLRERLRQGRIYSPEQAERALGGFFSYRNLSFLRELCLREASGDQVRKIEEQEHFPRHSAGDVIEGVMVALSSSPTDAETLIRRGVRIAHQMGSPCYVVYVQRPSENPTRIDSGLQRVLQGNLRLATQLGAEVVQLAGGDIAETLANFASERNVRHAVFGKSRLSPLLERVRGSFILEFLHDAVGVDVHIVNTTPRQPGQERA,not soluble
